The values below come from publication PMC5548924, “The N-Terminal Region of Fibrillin-1 Mediates a Bipartite Interaction with LTBP1” (Structure(London, England:1993), 2017).

To fix the notation:
B1: LTBP1^TB3E3 (LTBP1 TB3-EGF3) (domain or fragment)
chain: IRPAESNEQIEETDVYQDLCWEHLSDEYVCSRPLVGKQTTYTECCCLYGEAWGMQCALCPLKDSDDYAQLCNIPVTGRRQPYGRDALVDFSEQYTPEADPYFIQDRFLNSFEELQAEECGILNGCENGRCVRVQEGYTCDCFDGYHLDTAKMTCV
B2: LTBP1^cbEGF14TB3 (LTBP1 cbEGF14-TB3) (domain or fragment)
chain: MDECQDPSSCIDGQCVNTEGSYNCFCTHPMVLDASEKRCIRPAESNEQIEETDVYQDLCWEHLSDEYVCSRPLVGKQTTYTECCCLYGEAWGMQCALCPLKDSDDYAQLCNIPVTGRRQPY
modifications: Ca2+-bound cbEGF14; disulfide-bonded (refolded); limits run from the start of cbEGF14 to just after the last Cys of TB3 by convention, exact construct ends not given; vector-derived N-terminal …
B3: LTBP1^E3cbEGF15 (LTBP1 EGF3-cbEGF15) (domain or fragment)
chain: QAEECGILNGCENGRCVRVQEGYTCDCFDGYHLDTAKMTCVDVNECDELNNRMSLCKNAKCINTDGSYKCLCLPGYVPSDKPNYCT

The target of this assay is T1, FBN1^E2cbEGF1 (fibrillin-1 EGF2-EGF3-Hyb1-cbEGF1) (human, UniProt P35555 113-287, C204 replaced with a serine).
T1 construct: fibrillin-1 (FBN1), human, domains EGF2-EGF3-Hyb1-cbEGF1; His6 tag, Ser-Ala spacer and factor Xa site (Ile-Glu-Gly-Arg) at the N-terminus, tag removed with factor Xa; 15N-labelled in some NMR titrations; Construct described in Robertson et al., 2013b; also called FBN1 EGF2-EGF3-Hyb1-cbEGF1; four-domain FBN1 fragment; not shown: His6, N-terminal, cleaved
T1 sequence (P35555 other isoform, or with tags, fused parts or gaps C204 replaced with a serine | C204 replaced with a serine): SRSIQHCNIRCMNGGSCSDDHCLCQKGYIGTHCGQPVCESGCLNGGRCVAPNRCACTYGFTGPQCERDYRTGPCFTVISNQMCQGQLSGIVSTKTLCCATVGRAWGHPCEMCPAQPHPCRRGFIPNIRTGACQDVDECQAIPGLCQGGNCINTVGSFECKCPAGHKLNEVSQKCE
In words: SPR; Biacore T100; FBN1 fragments amine-coupled to a CM5 chip (1000 RU each flow cell), LTBP1 fragments as analytes; 50 mM Tris pH 7.5, 150 mM NaCl, 0.05% Tween 20, 2 mM CaCl2; 25°C; multi-cycle and single-cycle; Kd estimated from Scatchard plots. The following applies: both partners purified.
Consider B1, for which the equilibrium dissociation constant (Kd) was 0.5 to 1 µM.
As to B2, the Kd was around 300 µM.
Consider B3, for which the Kd is around 100 µM.

Usually Kd stands for a measure of binding affinity in units of concentration.
